Source: article PMC10336132 (2023)

What was measured:
SdpB(26-536) = target: T1, SdpB(26-536) (Caulobacter crescentus NA1000, UniProt A0A0H3C791 26-536, biotinylated using NHS-PEG4-Biotin (for BLI)); assay: BLI
T1 chain: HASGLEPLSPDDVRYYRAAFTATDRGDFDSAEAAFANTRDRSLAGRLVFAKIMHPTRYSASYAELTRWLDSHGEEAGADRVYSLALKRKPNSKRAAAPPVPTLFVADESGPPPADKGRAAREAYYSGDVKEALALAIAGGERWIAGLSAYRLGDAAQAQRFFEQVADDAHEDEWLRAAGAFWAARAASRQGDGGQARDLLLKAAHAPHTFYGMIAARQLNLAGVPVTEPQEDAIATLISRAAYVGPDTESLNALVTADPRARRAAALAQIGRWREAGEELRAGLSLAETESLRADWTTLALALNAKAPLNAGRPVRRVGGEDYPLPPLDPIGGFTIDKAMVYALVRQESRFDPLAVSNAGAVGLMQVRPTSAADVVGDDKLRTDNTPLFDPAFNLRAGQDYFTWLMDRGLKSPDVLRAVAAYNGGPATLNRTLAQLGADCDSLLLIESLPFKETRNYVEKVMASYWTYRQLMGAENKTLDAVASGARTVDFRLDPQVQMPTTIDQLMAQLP

CrbA(371-451) = target: T2, CrbA(371-451) (Caulobacter crescentus NA1000, UniProt A0A0H3C8K5 371-451, biotinylated using NHS-PEG4-Biotin (for BLI)); assay: BLI
T2 chain: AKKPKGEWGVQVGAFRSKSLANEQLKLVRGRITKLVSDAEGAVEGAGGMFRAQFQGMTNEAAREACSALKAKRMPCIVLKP

His6-SdpA(21-699) = target: T3, His6-SdpA(21-699) (Caulobacter crescentus NA1000, UniProt A0A0H3C7P1 21-699, biotinylated using NHS-PEG4-Biotin (for BLI)); assay: BLI
T3 chain: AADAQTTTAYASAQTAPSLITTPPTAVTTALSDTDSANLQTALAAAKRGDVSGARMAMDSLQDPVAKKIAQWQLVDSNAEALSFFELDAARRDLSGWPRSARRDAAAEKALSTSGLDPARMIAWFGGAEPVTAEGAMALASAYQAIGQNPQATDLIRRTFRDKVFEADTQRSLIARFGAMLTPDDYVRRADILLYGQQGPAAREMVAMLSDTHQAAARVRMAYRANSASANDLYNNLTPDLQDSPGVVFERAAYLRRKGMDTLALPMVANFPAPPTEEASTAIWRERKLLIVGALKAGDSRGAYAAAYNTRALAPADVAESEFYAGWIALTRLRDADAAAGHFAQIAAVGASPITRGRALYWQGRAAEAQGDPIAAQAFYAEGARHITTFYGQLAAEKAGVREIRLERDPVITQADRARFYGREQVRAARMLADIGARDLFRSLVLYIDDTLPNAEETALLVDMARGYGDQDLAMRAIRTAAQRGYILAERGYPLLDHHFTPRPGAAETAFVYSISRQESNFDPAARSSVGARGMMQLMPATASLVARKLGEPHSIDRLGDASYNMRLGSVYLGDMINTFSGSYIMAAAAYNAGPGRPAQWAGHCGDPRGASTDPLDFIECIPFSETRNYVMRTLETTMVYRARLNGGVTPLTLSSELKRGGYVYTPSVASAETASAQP

FtsN(51-266) = target: T4, FtsN(51-266) (Caulobacter crescentus NA1000, UniProt B8GX61 51-266, biotinylated using NHS-PEG4-Biotin (for BLI)); assay: BLI
T4 chain: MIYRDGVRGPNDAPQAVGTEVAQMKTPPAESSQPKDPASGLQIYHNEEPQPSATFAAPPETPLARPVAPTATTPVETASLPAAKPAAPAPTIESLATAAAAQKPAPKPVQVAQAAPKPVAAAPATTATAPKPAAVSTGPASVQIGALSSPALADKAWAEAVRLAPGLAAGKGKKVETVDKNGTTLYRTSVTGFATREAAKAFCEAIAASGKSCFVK

AmiC(35-395) = target: T5, AmiC(35-395) (Caulobacter crescentus NA1000, UniProt A0A0H3C9I3 35-395, biotinylated using NHS-PEG4-Biotin (for BLI)); assay: BLI
T5 chain: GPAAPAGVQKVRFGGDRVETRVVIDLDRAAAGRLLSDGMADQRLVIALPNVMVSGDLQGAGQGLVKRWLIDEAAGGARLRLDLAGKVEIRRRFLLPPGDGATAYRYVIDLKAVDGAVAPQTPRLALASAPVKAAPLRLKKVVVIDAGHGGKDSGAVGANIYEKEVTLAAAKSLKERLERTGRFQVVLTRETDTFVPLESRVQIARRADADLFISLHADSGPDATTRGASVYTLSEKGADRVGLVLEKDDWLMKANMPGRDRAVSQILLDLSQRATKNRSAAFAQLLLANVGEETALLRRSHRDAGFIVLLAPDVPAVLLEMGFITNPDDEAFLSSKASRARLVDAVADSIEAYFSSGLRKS

[1] = target: SdpA, SdpB, AmiC, the SPOR domain of CrbA and the periplasmic region of FtsN; assay: BLI; biotinylated target immobilised on streptavidin (SAX) sensors, DipM as analyte at several concentrations; equilibrium shifts fitted to a one-site model; 50 mM HEPES/NaOH pH 7.2, 50 mM NaCl, 5 mM MgCl2, 0.1 mM EDTA, 10% glycerol, 10 µM BSA, 0.01% Triton X-100

Kd (SdpB(26-536)): 3.5 µM | Kd (CrbA(371-451)): 46.3 µM | Kd (His6-SdpA(21-699)): 12.1 µM | Kd (FtsN(51-266)): 20 µM | Kd (AmiC(35-395)): 18.3 µM | Kd [1]: 3 to 46 µM
B1: MAS-DipM(26-609)-His6 (natural protein)
chain: MASGQSGQRFTPNFPITQPAAPPPGETIQAQPGEAESLPRPTPIPVQSAPPIAQAELPPPAPVSTPAPAPQPVLRATPPRTVVTTTVTGPVVEVAGKPQVRVVESGDALDAIARGMGSTRAELVKLNDLEPPYRLKLGQKIKGPATTAKAYVVQTGDTMFAIAKRFNVTAAALAEENDLKSGAAIKKGQKLLLPDGYKDKGPIKTTQVIPGTPATMVAEAEPAPATTRPATPAATPSRPVRQPVSEETSEPATTSTTTLSVTGSVVTVAGPRQVHTVKSGDTLTAIARKFDMSVSELAEANKLDTEKPLKLGAKIKGPATTQKAYSVQTGDTLGEIAKRFNVSVKALAAENNLRATASLKKGQKIALPDGFRDKGPIRTTTTTRPATPPANTYARVDSSAAAASTPSSPVPYTPSGAAPRPSAPVAAQPITPPPSSGRTIIETAAAPTEAEIIASGKGKFAWPLRGDIISSFGVKGTGQRNDGLNIRAPQGTPVLSSADGEIAYAGNQVPTFGNLVLVKHADGWVTAYAHLSSTNVKMRQQVKQGEQLGTVGATGGVNEPQLHFEMRYAPTVKDKAKPVDPALVLPR
